Measured values from the nanobody polyreactivity screen of Harvey et al. (2022).

Assay: yeast display, Sf9 membrane polyspecificity reagent, FACS + sequencing; frameworks hold sequencing errors
How it was run: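 A synthetic nanobody library was expressed on Saccharomyces cerevisiae BJ5465 by galactose induction for 36–48 hours. The library was stained for 1 hour at 4 °C with 10% biotinylated, detergent-solubilized Sf9 membrane reagent and enriched with streptavidin microbeads before FACS. Low and high (top ~1%) gates were set on anti-HA fluorescence for expression and streptavidin fluorescence for reagent binding, and each polyreactivity label reflects the gate of origin.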

| Sequence | polyreactivity (PSR sort gate) |
| --- | --- |
| QVQLVESGGGLVQAGGSLRLSFAASGRIFAYYAMGCYRQAPGKERELVASISRSGGRTYYADSVKGRFTISRDNAKNTVYLQMNSLKPEDTAVYYFNRAVWFKSTVDYWGQGTQVTVSS | high polyreactivity |
| QVQLVESGGGLVQAGGSLRLSFAASGRIFGYYAMGWYRQAPGKERELVAAITTSDGSTYYADSVKGRFTISRDNAKNTVYLQMNSLKPEDTAVYYCNARRWGYQWRGDYWGQGTQVTVSS | high polyreactivity |
| QVQLVESGGGLVQAGGSLRLSFAASGRIFRSYAMGWYRQAPGKERELVAAITSGGSTYYADSVKGRFTISRDNAKNTVYLQLNSLKPEDTAVYYCNADYDVSSPRPAFDYWGQGTQVTVSS | low polyreactivity |
| QVQLVESGGGLVQAGGSLRLSFAASGRIFYSNARGWYRQAPGKERELVATITRSSGITYYADSVKGRFTISRDNAKNTVYLQMNSLKTEDTAVYYWADRYSNRWARVSGYDYWGQGTQVTVSS | high polyreactivity |
| QVQLVESGGGLVQAGGSLRLSFAASGRTFGYYAMGWYRHAPGKERELVAAITRNGGRTYYADSVKGRFTISSDNAKNTFYLQMNSLKPEDTAVYYCAKDQYKPEAFYYWGQGTQVTVSS | high polyreactivity |
| QVQLVESGGGLVQAGGSLRLSFAASGRTFSRYAMVWYRQAPGKERELVATISFGGSTYYADSVKGRFTISRDNAKNTVYLQMNSLKPEDTALYYCTARYYLNYRGRKYESWGQGTQVTVSS | high polyreactivity |
| QVQLVESGGGLVQAGGSLRLSFAASGSIFKGYTMGWYIQAPGKEREFVASISRRGGSTYYADSVKGRFTISRDNAKNTVYLQMNSLKPEYTAVYYCAKDYGKAYDYWGQGTQVTVSS | high polyreactivity |
| QVQLVESGGGLVQAGGSLRLSFAASGSIFPSYAMVWYRQAPGKERELVARISSGDDSTYYADSVKGRFTISRDNAKNTVYLQMNSLKPEDNAVYYCAADYPDVVYLEYDYWGQGTQVTVSS | low polyreactivity |
| QVQLVESGGGLVQAGGSLRLSFAASGSIFTPNVMGWYRPAPGKERELVAAISQSGGSTFYADSVKGRFTISRDNAKNTVYLQMNSLKPEDTAVYFCATEYYGPVYDLDYDYWGQGTQVTVSS | low polyreactivity |
| QVQLVESGGGLVQAGGSLRLSFAASGSIFYAYAMGWYRQAPGKERELVAGISGGGSTNYADSVKGRFTISRDNAKNTVYLQMNSLKPEDTAVYYCAADGWLSATYDGLPDSDSWGQGTQVTVSS | high polyreactivity |
| QVQLVESGGGLVQAGGSLRLSFAASGSTFGLNAMGWYRQAPGKERELVAAITRSDITNYADSVKGRFTISRDNAKNTVYLQMNSLKPEDTAVYYCNKTPDRHRRYFGYGYWGQGTQVTVSS | low polyreactivity |
| QVQLVESGGGLVQAGGSLRLSFAASGSTFPVYTMGWYRQAPGKERELVAAITGSGGRTYYADSVKGRFTISRDNAKNTVYLQMNSLKPEDTAVYYCNAYPKGRYAAAFPGMDYWGQGTQVTVSS | high polyreactivity |
| QVQLVESGGGLVQAGGSLRLSFAASGYIFYPNVMGWYRQAPGKERELVADISSGGSTNYADSVKGRFTISRDNAKNTVYLQINSLKPEDTAVYYCAKGPRLYFTRDKAHWKYDYWGQGTQVTVSS | low polyreactivity |
| QVQLVESGGGLVQAGGSLRLSFAATGRICSPYAMGWYRQAPGKERELVAAISYDDGITYYADSVKGRFTISRDNATNTVYLQMNSLTPEDTAVYYCAADSVTRPAGDYWGQGTQVTVSS | low polyreactivity |
| QVQLVESGGGLVQAGGSLRLSFAGSGYIFTSYAMRWYRQAPGKERQLVARINYSGGGTSYADSVKGRFTISRDNAKHTVYLQMNSLKQEDTAVYYCAARSYWFRPTKYNYWGQGTQVTVSS | high polyreactivity |
| QVQLVESGGGLVQAGGSLRLSFAPSGNSFGRYAMGWYRQAPGKERELVAAITRSGGTTYYADSVKGRFTLSRDNAKNTGYLQMNSLKPEDTAVYYCATDGDSTKLDYWGQGTQVTVSS | low polyreactivity |
| QVQLVESGGGLVQAGGSLRLSFDASGLIFYYYTMGWYRPAPGKERELVAAITWTDVDTYYADSVKGRFTISRDNAKNTVYLQMNSLKPEDTAVYYCAAEGGRTSYGGSGELDYWGQGTQVTVSS | high polyreactivity |
| QVQLVESGGGLVQAGGSLRLSGAASGFIFIGYTMGWYRQAPGKAWELVATISLGDDSTYYADSVKGRFTISRDNAKNTVYLQMNSLKPEDTAVYYCAGDQKDGTTSAYDYCGQGTQVTVSS | low polyreactivity |
| QVQLVESGGGLVQAGGSLRLSGAASGFTFDNNAMGWYRQAPGKEREMVAAITGRGSRTNYADSVKGRFTISRDNAKNTVYLQMNSLKPEDTAVYYCATRLWVYGEGSFDDWGQGTQVTVSS | high polyreactivity |
| QVQLVESGGGLVQAGGSLRLSGAASGRIFDIYAMGWYRQAPGKERELVAGITSVGSTNYADSVKGRFTISRDYAKNTVYLQMNSLKPEDTAVYYCAADTSVHSEVDYGGQGTQVTVSS | low polyreactivity |

| Sequence | polyreactivity (PSR sort gate) |
| --- | --- |
| QVQLVESGGGLVQAGGSLRLSGAASGRIFVRNSMGWYRQAPGKERELVAAISSNGGSTRYADSVKGRFTISRDNAKNTVYLQMNSQKPEDTAVYYCNAYYSHSPRYLKYDYWGQGTQVTVSS | high polyreactivity |
| QVQLVESGGGLVQAGGSLRLSGAASGRILRRYTMGWSRQAPGKERELVAAISSGGNTYYADSVKGRFTISRDNATNTVYLQMNSLKPEDTAGYYCAARVRRYWEYDYWGQGTQVTVSS | low polyreactivity |
| QVQLVESGGGLVQAGGSLRLSGAASGRTFGSNDMGWYRQAHGKERELVAAISGRTDSTYYADSVKGRFTISRDIAKNTVYLQMNSLKPEDTAVYYCAADSADVLYYYIRYNYWGQGTQVTVSS | low polyreactivity |
| QVQLVESGGGLVQAGGSLRLSGAASGRTFVYYAMGWYRQAPGKEREFVAAISRSGGRTSYADSVKGRFTISRDNAKNTVYLQMNSLKPEDTAVYDCAKRPQFFWSHPYDYWGQGTLVTVSS | high polyreactivity |
| QVQLVESGGGLVQAGGSLRLSGAASGSIFSHYAMGWYRQAPGKAWELVASISTADSTNYADSVKGRFTISRDNAKNTVYFQMYSLKPEDTAVYYCAAEYQSYAQYAWGYDYCGQGTQVTVSS | low polyreactivity |
| QVQLVESGGGLVQAGGSLRLSGAASGSSFLRNAMGWSRQAPGKERELVATISTGSGRTYYADSVKGRFTISRDNAKNTVYLQMTSLKPEDTAVYYCAASRTLRKHRYEYWGQGTKVTVSS | high polyreactivity |
| QVQLVESGGGLVQAGGSLRLSGAASGSTFRYYVMGWYRQAPGKERELVAGISYRGGTTYYADSVKGRFTISRDNAKNTVYLQMISLKPEDTAVYYCNAETAAAQASFDRLYVLLDYWGQGTQVTVSS | low polyreactivity |
| QVQLVESGGGLVQAGGSLRLSGAASGSTFYPNAMGRYRQAPGKERELVAAISGRGGRTYYADSVKGRFTISRDFAKNTVYLQINSLKPEDTAVYYCNIVRASDHYDYWGQGTQVTVSS | high polyreactivity |
| QVQLVESGGGLVQAGGSLRLSGAATGSIIHPYAMGWYRQAPGKERELLAAISKSGGNTYYADSVKGRITISRDNAKNTVYLQMNSLKPEDTAVYYCAALDYWGQGTQVTVSS | low polyreactivity |
| QVQLVESGGGLVQAGGSLRLSGDASGYIFVRYAMGWYRQAPGQARELVAAINSSGGRTYYADSVKGRFTISRDNAKNTVYLQMNSLKPEDTAVYYCAAYAYYRSGYRALEGYWGQGTQVTVSS | high polyreactivity |
| QVQLVESGGGLVQAGGSLRLSRAASGFTITYNAKGWSRPAPGKESELVAAITGDGGSTYYADSVKGRFTISRDNAKNTVYLQMNSLKPEDTAVYYCAAYVVWGGTDGRYDYWGQGTQVTVSS | low polyreactivity |
| QVQLVESGGGLVQAGGSLRLSRAASGGSLRLYAMRWYRQAHGKERELVSAINDRSGSTYYADSVKGRFTISRDNAKNTVYLKLNRLKPEDTAVYYCYAYGTPPGSDGQYDYWGQGTQVTVSS | high polyreactivity |
| QVQLVESGGGLVQAGGSLRLSRAASGITFGFKAMGWYRQAPGKERELVAAITWSVGRTYYADSVKGRFTISRDNAKNTVYLQMNSLKPEDTAVYYCAKDFEAGDDYFAYDYWGQGTQVTVSS | low polyreactivity |
| QVQLVESGGGLVQAGGSLRLSRAASGRTFYFNAMGWYRQAPGKERELVAGISGDGSTNYADSVKGRFTISRDNAKNTVYLQMNSLKPEDTAVYYCAKTLGSQNYDFDYWGQGTQVTVSS | low polyreactivity |
| QVQLVESGGGLVQAGGSLRLSRAGCGRIFFVYAMRWYRQAPGKERELVAALSVSDVSTSYADSVKGRFTISRDNAKNTVFLQMNSLKPEDTAVYYCLAAFRFYASSRIAGEDYWGQGTQVTVSS | low polyreactivity |
| QVQLVESGGGLVQAGGSLRLSRASSGVISYRNAMGWYRKAPGKERQLVASITSSGGRTYYADSVKGRFTISRDYATNSVFLQMNSLKPEDTAVYYCADDNWYKKLKRPSAYDYWGQGTQVTVSS | high polyreactivity |
| QVQLVESGGGLVQAGGSLRLSSAASGFIFDGNAMGWYRQAPGKERELVAAIRSGGRTNYADSVKGRFTISRDNAKNTVYLQMNSLKPEDTAVYYCAARSIYPYYYRRDNRYYYWGQGTQVTVSS | high polyreactivity |
| QVQLVESGGGLVQAGGSLRLSSAASGFIFPVYTMGWYRQAPGTERELLAAITQIGGSTHYADSVKGRFTISRDNAKNTVYLQMNSLKPVDTAVYYFNAVPSYGTEYDYWGQGTQVTVSS | low polyreactivity |
| QVQLVESGGGLVQAGGSLRLSSAASGFIFRTYAMGRYRQAHGKESQLVAAISGTTGSKYYADSVKGRFTISRDNAKNTVYLQMNSLKPEDTAVYYCAADFYWYIRYDYWGQGTQVTVSS | low polyreactivity |
| QVQLVESGGGLVQAGGSLRLSSAASGFIIVFYAMGWYRQAPGKERELVAAITWSGGGTYYADSVKGRCTISRDNAKNTVYLQMNSLKPEDTAVYYCNAEEPQYYYVLDKLYDFWGQGTQVTVSS | low polyreactivity |
